Laboratory results from the domain aggregation screens of Martell et al. (2025).

experiment: soluble fraction after stress (log2 fold change); higher = more stays soluble; pooled small domains, quantitative proteomics; conditions: stress: 75 degC
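Further: 20 min heating vs room temperature control held 20 min.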

Point of comparison: “HMSKETTYEVLSLKGDEWQTDTIYSDRDEAIEAARNLHGDPHIDGAKVISEVYDDKTGGSKETTIFNT”, “soluble fraction (log2)” value 0.535. Against it:
- HMSIQELMNSKDLSSFKVEMLSDEDIAKYKGLLQNSGLTEAQAEQMALQRGLPSSELLKLKARLSGI — lower, 0.118
- HMSIQREIILEVIKNNRTHPTAEEIYILVTKKEPKISRSTVYRNINILVEKGIIEKITIATGPDRYDY — lower, -1.53
- HMSISDEDFAKLLDFVKEKWDAGELDNAEDIKAAISEGEKEFGVSLDESTRTTLASALQQLN — lower, 0.274
- HMSIYDAPIEDLKFSTRIFNSLKRADIHTVADLIAHSRDDLMKVRNLGATSLDELIEKLGTHGLQLADP — lower, -0.412
- HMSIYYQIYESLKKDLSNNLYKPGEKLPSENVLSKRFGVNRHTIRRSLQLLKNEGILFSKRGSGIIVHD — lower, -3.45
- HMSKDKEKRTREHVLGILKKYDKVMTDKAFTVFKKMIKDESILEMELIKLINFIGERKEIRSKDVLAVVTE — lower, -0.504
- HMSKEIQNILASLPSVDVLLKQIDPIYPHGKAKEATQQVVARLRESVVDGTRKTVIDQKEVIAMIHKQLEE — lower, -0.293
- HMSKHAIQNELEKIEGIGKQTADSLLKEFKSVKKLRTLPLSEIEKVIGKSKATIVFEALHKDK — lower, 0.00931
- HMSKHATLLEALADLSVKLKPHSQLPSERALSEEYGVSRMTLRRAIDVLQARGYIYSVPSKGLFVSEP — lower, -1.89
- HMSKHATLLEALAELTVKLKPHTQLPSERQLSEDFGVSRMTLRRAIDVMQSRGYIYTVPSKGLYVSEP — lower, -1.72
- HMSKIRTFRVKTVAVDQAYQVLKDYSPIKISTESNAVIIDLDESKTPAEIAGYLEKNGIKVDNIEVIAESE — higher, 0.962
- HMSKISKENEQQVIQIVQTLLLNVQDKSLITTQILNEKINLAVSLDTKYKENLDRDYIIEELIRRYSVW — lower, -2.93
- HMSKKIVLPAAITVKKFSETLDMPLGTVISELMKNGILATINERIDFETASIIAQDLGYEVSEEV — lower, -0.216
- HMSKKQEQALQSREKLLDAATALFAEHGYRDTSVQAIGEKAGVSRGSIFWHFGSKEGLLWAVVERAFTA — lower, 0.303
- HMSKKTQKDEVVDLFLKTGNEPLHYKEISKKTGIIVHNVRRITGQNVVGKTDNPVFKRVSPGVYKLID — lower, -0.72
- HMSKLSVSSLSSPEVQNQLKAAGIDVNSRQYQVVMKDMMGALDGRAGYTTVSAIKNRMRQYNADGDY — within 0.2 log units, 0.687
- HMSKMVEMSQEKSREKVARVKIEIQKMLDRKERVTVSGLERATGFSNSFFYRNEEVNQAVKEAQLKQ — lower, -0.138
- HMSKNIRQQFLDVLPKTFDRNQYLETAKKLSINAKTAEGYIKKFVEANLLDHPKHNHYINLKKVEEVETK — lower, -0.0919
- HMSKNYYEILGVTPDVELSQLKAVYRRLVRKYHPDINPDGELIFKDITEAYEVLSDEKQRKQYDMINGF — lower, -0.596
- HMSKPILSFVDPEKDPSHYVKRYITEETYKDWFSEHFPDYTLYEGIGITQEEYRNIVNELTKP — lower, -0.5
- HMSKPIYSELLREIRSGDVKELTLIPQRREVLVEYSDGRKATVSILANDQQVLRTAESAGVPLTVK — lower, -0.0278
- HMSKPVFQTHSVRSADSATVFDVLQTLLAGTPDARIAIDPKTNAIVAWARPETQEVIAKSIMEMEG — lower, 0.0746
- HMSKQIEVPDVTDMTVSDAIDVLQDKGFVVSDEQKEVASSEIEEGRVVRTSPAVGSKRKDGTVVTLYVSI — within 0.2 log units, 0.353
- HMSKTEEIAYTTFVKYLENKDIEEVYLGNNAKIKVILKDGREMITDNPRTADFKKDLLLHDIKVVEKT — lower, -0.0889
- HMSKYGIAYSEVLEILKHIPIEDYNKIPRNEIELFETYADKDFTFNYDSSKTLEEQNVSNITKGIIIL — lower, -0.56
- HMSLEEQNGAKDRQVEAYELLLKAQRALDQEDTAGFQAAMKDLEPLSSQLDAQGQTLYHELLPFVS — lower, -0.232
- HMSLGSNISRLRAEKHLSQGDLAEALDVSRQSVSKWETDGSVPDLDKLVKLSRIFGVTLDELVTGTP — lower, -0.039
- HMSLIHEQSLKEIRIFINNLPESLRTAFTLREQDGLSYEEISKITDTPIGTVRSRIFRARESILEHINEEL — lower, -2.25
- HMSLLTPLEEARIVIEELIIPQKLTLDLLPQNSQIRKLQHEIINHYRLKGISIGDGKNRRVRIYS — lower, -0.204
